Results as given in PMC5409509, “The mismatch repair and meiotic recombination endonuclease Mlh1-Mlh3 is activated by polymer formation and can cleave DNA substrates in trans”.

How the values were obtained:
Mlh1-Mlh3 [1] = molecular target: T1, Mlh1-Mlh3 (Saccharomyces cerevisiae, UniProt P38920;Q12083 1-769;1-715); assay: competition; very strong competitor of plasmid nicking, 0-2000 nM, 1 mM Mg2+; Filter binding: 20 mM Tris-HCl pH 7.5, 0.01 mM EDTA, 2 mM MgCl2, 40 ug/mL BSA, 0.1 mM DTT, 15 uM nucleotide DNA, 10 min at 30 C (20 or 150 mM KCl in Fig 4B; KCl not stated for Fig 4A); conditions: protein: recombinant; copies: 1;1; 4-way junction with 26 bp mobile homologous core
T1 sequence 1: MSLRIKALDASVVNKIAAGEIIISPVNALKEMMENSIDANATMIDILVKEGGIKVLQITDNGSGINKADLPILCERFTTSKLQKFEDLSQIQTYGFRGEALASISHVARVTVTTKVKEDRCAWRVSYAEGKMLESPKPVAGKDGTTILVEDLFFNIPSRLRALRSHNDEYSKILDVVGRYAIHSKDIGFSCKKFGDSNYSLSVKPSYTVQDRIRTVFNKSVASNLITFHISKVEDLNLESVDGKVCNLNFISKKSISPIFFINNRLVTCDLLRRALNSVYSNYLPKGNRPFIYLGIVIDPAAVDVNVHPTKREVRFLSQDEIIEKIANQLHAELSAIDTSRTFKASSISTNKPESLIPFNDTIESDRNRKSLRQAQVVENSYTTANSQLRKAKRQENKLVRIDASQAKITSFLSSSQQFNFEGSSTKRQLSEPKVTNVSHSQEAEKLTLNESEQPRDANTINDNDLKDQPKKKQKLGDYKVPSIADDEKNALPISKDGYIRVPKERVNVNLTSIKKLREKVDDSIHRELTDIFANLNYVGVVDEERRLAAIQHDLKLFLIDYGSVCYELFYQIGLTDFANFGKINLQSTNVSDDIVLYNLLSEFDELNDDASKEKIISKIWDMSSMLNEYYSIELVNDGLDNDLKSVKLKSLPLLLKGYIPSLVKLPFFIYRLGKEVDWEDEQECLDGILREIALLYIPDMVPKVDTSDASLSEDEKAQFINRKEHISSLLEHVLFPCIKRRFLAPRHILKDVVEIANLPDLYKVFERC
T1 sequence 2: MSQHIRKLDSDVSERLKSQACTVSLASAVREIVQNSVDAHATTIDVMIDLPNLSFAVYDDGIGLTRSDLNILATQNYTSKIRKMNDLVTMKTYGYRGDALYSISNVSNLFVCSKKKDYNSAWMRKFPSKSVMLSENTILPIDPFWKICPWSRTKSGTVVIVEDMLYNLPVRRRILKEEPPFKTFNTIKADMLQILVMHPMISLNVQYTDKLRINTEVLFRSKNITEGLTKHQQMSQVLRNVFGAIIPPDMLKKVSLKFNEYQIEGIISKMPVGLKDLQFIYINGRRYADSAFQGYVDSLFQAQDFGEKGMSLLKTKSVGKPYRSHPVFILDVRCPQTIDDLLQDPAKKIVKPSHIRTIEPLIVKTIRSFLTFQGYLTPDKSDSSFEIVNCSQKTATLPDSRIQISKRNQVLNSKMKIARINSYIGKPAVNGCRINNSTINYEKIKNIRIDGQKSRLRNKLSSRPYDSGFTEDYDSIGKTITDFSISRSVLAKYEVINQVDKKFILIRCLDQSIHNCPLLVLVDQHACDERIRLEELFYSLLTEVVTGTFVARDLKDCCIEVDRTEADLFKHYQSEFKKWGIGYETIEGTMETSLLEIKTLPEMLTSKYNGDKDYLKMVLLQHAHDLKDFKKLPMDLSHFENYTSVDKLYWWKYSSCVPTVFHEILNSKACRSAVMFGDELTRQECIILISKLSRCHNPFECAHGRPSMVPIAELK

Mlh1-Mlh3 [2] = molecular target: T1, Mlh1-Mlh3; assay: competition; very strong competitor of plasmid nicking, 0-2000 nM oligo, 1 mM Mg2+; Filter binding: 20 mM Tris-HCl pH 7.5, 0.01 mM EDTA, 2 mM MgCl2, 40 ug/mL BSA, 0.1 mM DTT, 15 uM nucleotide DNA, 10 min at 30 C (20 or 150 mM KCl in Fig 4B; KCl not stated for Fig 4A); conditions: protein: recombinant; copies: 1;1; blunt

B1: Holliday junction X26 (structured_DNA)
DNA 1: GCGCTACCAGTGATCACCAATGGATTGCTAGGACATCTTTGCCCACCTGCAGGTTCACCC
DNA 2: GGGTGAACCTGCAGGTGGGCAAAGATGTCCTAGCAATCCATTGTCTATGACGTCAAGCTC
DNA 3: GAGCTTGACGTCATAGACAATGGATTGCTAGGACATCTTTGCCGTCTTGTCAATATCGGC
DNA 4: GCCGATATTGACAAGACGGCAAAGATGTCCTAGCAATCCATTGGTGATCACTGGTAGCGC
B1: binds (Mlh1-Mlh3 [1]).

B2: +8 loop oligonucleotide (AO3142/AO3143) (dsDNA)
DNA 1: GGGTCAACGTGGGCAAAGATGTCCTAGCAAGTCAGAATTCGGTAGCGTG
DNA 2: CACGCTACCGAATTCTGACTTGCTAGGTGTGTGTGACATCTTTGCCCACGTTGACCC
B2: binds (Mlh1-Mlh3 [2]).
